Experimental findings from patent US20220193132A1 are described below.

For assay [1], the target named is EGFRvIII, full length, overexpressed on glioblastoma cells (human) (UniProt P00533). Description: flow cytometry dose-response on U87MG-EGFRvIII cells, apparent Kd.
Assay [2] deals with recombinant human EGFRvIII protein (extracellular domain), denatured (human) (UniProt P00533). Description: ELISA Exp 1, mAb supernatant.
The target of assay [3] is recombinant human wild type EGFR protein (extracellular domain), native (human) (UniProt P00533). Description: ELISA Exp 1, mAb supernatant.
Assay [4] deals with recombinant human wild type EGFR protein (extracellular domain), denatured (human) (UniProt P00533). Description: ELISA Exp 1, mAb supernatant.
Assay [5] deals with recombinant human EGFRvIII protein (extracellular domain), native (human) (UniProt P00533). Description: ELISA Exp 1, mAb supernatant.
The target in assay [6] is recombinant human EGFRvIII protein (extracellular domain), denatured (human) (UniProt P00533). Description: ELISA Exp 2, purified mAb 1 ug/ml.
Assay [7] deals with recombinant human wild type EGFR protein (extracellular domain), native (human) (UniProt P00533). Description: ELISA Exp 2, purified mAb 1 ug/ml.
Assay [8] has as its target recombinant human EGFRvIII protein (extracellular domain), native (human) (UniProt P00533). Description: ELISA Exp 2, purified mAb 1 ug/ml.
Assay [9] concerns the target EGFRvIII, full length, overexpressed on glioblastoma cells (human) (UniProt P00533). Description: cell-based or functional assay.
In assay [10] the target is wild type human EGFR, full length, overexpressed on U87MG cells (human) (UniProt P00533). Description: cell-based or functional assay.
The target is the same in assay [11]. Description: flow cytometry dose-response on U87MG-EGFRwt cells, apparent Kd.
Assay [12] concerns the target recombinant human wild type EGFR protein (extracellular domain), denatured (human) (UniProt P00533). Description: ELISA Exp 2, purified mAb 1 ug/ml.

Bounds are passed on as bounds.

On to 225 mAb (ATCC HB-8508) (antibody), for which the Kd in assay [1] and in [11] was 2.2 nM each time. Also, the ELISA absorbance 405 nm in assay [2] was 0.001 A405; in [3] it was 1.2 A405; in assay [4], -0.01 A405; in assay [5], 1.08 A405; in assay [6], 0.004 A405; in assay [7], 1.32 A405. Also, the ELISA absorbance 405 nm in [8] turned out to be 1.5 A405. For the same substance, the % internalization (pHrodo surrogate assay, vs 225 mAb) was 100% in assay [9] and 101% in assay [10]. The figures for the % survival (DM1 secondary-conjugate ADC surrogate assay, vs mouse IgG) in assay [9] and in assay [10] were 49% and 52%, respectively.
The substance Neg ctrl mIgG (antibody) registered a % internalization (pHrodo surrogate assay, vs 225 mAb) in assay [9] of less than 3%.
Regarding Neg ctrl mouse mAb (antibody), the ELISA absorbance 405 nm was 0 A405 in assay [12] and -0.001 A405 in assay [8]. Also, the % survival (DM1 secondary-conjugate ADC surrogate assay, vs mouse IgG) in assay [9] and in assay [10] was more than 98% throughout.
